T1: Six1 (Mus musculus, UniProt Q62231 1-284)
T1 sequence: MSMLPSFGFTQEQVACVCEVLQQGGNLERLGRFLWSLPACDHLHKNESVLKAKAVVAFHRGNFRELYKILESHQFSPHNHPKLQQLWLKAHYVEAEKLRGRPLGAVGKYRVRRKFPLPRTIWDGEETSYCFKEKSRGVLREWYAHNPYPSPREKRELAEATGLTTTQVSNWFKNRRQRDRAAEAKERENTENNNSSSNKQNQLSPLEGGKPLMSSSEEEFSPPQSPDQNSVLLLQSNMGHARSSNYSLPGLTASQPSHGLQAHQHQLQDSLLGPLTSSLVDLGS

B1: Enh3 (dsDNA)
DNA 1: TGTAAGAGAAACTGAAATAAAAT
DNA 2: ATTTTATTTCAGTTTCTCTTACA
B2: Enh6 (dsDNA)
DNA 1: CGTCAAGGAAACCTTATTCCATC
DNA 2: GATGGAATAAGGTTTCCTTGACG
B3: Enh4 (dsDNA)
DNA 1: GGGGTAAGAAATCTGACGACAGG
DNA 2: CCTGTCGTCAGATTTCTTACCCC
B4: Enh2 (dsDNA)
DNA 1: TCATAAGGAAATCTAAGTCAACC
DNA 2: GGTTGACTTAGATTTCCTTATGA
B5: Enh1 (dsDNA)
DNA 1: CTCTTGGGTAACTGGAGCCCCTC
DNA 2: GAGGGGCTCCAGTTACCCAAGAG

The binders below were run against T1, Six1 (assay: competition EMSA; 10x and 100x vs labeled Myogenin MEF3; EMSA as previously described (ref 38); buffer, salt, pH and temperature not given). Conditions: protein: ivt; blunt.

Binding result, binds:
B1
B2
B3
B4
B5

Reference: article PMC4031048, “Six Homeoproteins and a linc-RNA at the Fast MYH Locus Lock Fast Myofiber Terminal Phenotype”
